# Paper PMC11117068 (2024)
# Columns and labels:
# complement C3b [1] = biological target: T1, complement C3b (UniProt P01024 749-1663; P01024 749-1663); experiment: SPR
# complement C3b [2] = biological target: T1, complement C3b; experiment: SPR; remark: listed apart in the source
# T1 sequence (P01024 23-667, chain 1 of 2): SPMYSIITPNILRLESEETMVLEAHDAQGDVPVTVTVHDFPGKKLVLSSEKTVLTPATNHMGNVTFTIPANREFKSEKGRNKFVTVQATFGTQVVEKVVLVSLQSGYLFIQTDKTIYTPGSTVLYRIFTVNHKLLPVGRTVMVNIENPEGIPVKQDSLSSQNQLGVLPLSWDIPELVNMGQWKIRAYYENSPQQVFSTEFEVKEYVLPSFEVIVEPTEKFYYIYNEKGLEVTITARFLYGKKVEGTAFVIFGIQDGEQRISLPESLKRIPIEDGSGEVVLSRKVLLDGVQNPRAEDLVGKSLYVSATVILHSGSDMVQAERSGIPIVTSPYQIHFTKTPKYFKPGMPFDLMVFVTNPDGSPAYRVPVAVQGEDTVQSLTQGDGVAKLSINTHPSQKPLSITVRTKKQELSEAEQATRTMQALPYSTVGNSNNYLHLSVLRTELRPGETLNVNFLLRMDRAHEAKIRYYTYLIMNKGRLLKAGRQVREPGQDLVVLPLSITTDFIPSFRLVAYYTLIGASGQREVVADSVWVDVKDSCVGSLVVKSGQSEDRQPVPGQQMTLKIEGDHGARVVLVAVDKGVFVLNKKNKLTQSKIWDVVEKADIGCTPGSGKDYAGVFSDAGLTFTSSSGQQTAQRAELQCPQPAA
# T1 sequence (P01024 749-1663, chain 2 of 2): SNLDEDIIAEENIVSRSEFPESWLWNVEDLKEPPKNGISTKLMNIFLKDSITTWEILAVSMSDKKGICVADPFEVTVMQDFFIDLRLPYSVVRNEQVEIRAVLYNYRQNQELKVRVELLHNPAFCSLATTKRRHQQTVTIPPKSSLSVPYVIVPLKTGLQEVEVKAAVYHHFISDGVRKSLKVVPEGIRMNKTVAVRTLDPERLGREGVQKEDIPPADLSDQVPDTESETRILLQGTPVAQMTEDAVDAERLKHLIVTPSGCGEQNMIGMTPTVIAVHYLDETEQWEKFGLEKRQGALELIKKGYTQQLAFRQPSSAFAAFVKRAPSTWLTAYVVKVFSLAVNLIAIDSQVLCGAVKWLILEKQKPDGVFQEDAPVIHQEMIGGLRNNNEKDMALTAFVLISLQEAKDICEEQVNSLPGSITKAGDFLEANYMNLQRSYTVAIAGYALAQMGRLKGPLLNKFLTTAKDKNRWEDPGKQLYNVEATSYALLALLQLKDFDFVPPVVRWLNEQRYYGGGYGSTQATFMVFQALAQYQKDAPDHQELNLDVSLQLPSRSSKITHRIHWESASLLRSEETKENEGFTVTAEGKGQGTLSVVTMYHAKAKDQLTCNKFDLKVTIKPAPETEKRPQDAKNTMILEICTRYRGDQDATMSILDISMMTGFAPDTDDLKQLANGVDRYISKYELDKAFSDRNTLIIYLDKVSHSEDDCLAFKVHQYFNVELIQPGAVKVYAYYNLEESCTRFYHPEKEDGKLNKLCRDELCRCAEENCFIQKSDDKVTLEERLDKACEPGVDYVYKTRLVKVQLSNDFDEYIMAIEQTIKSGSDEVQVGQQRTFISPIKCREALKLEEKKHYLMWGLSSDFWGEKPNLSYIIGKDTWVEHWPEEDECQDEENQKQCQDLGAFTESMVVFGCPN
binder,measurement,setting,value
"serum-derived human factor H (sd-FH) (natural protein, native N-linked glycans, diantennary and a small number of triantennary sialylated glycans) EDCNELPPRRNTEILTGSWSDQTYPEGTQAIYKCRPGYRSLGNVIMVCRKGEWVALNPLRKCQKRPCGHPGDTPFGTFTLTGGNVFEYGVKAVYTCNEGYQLLGEINYRECDTDGWTNDIPICEVVKCLPVTAPENGKIVSSAMEPDREYHFGQAVRFVCNSGYKIEGDEEMHCSDDGFWSKEKPKCVEISCKSPDVINGSPISQKIIYKENERFQYKCNMGYEYSERGDAVCTESGWRPLPSCEEKSCDNPYIPNGDYSPLRIKHRTGDEITYQCRNGFYPATRGNTAKCTSTGWIPAPRCTLKPCDYPDIKHGGLYHENMRRPYFPVAVGKYYSYYCDEHFETPSGSYWDHIHCTQDGWSPAVPCLRKCYFPYLENGYNQNYGRKFVQGKSIDVACHPGYALPKAQTTVTCMENGWSPTPRCIRVKTCSKSSIDIENGFISESQYTYALKEKAKYQCKLGYVTADGETSGSITCGKDGWSAQPTCIKSCDIPVFMNARTKNDFTWFKLNDTLDYECHDGYESNTGSTTGSIVCGYNGWSDLPICYERECELPKIDVHLVPDRKKDQYKVGEVLKFSCKPGFTIVGPNSVQCYHFGLSPDLPICKEQVQSCGPPPELLNGNVKEKTKEEYGHSEVVEYYCNPRFLMKGPNKIQCVDGEWTTLPVCIVEESTCGDIPELEHGWAQLSSPPYYYGDSVEFNCSESFTMIGHRSITCIHGVWTQLPQCVAIDKLKKCKSSNLIILEEHLKNKKEFDHNSNIRYRCRGKEGWIHTVCINGRWDPEVNCSMAQIQLCPPPPQIPNSHNMTTTLNYRDGEKVSVLCQENYLIQEGEEITCKDGRWQSIPLCVEKIPCSQPPQIEHGTINSSRSSQESYAHGTKLSYTCEGGFRISEENETTCYMGKWSSPPQCEGLPCKSPPEISHGVVAHMSDSYQYGEEVTYKCFEGFGIDGPAIAKCLGEKWSHPPSCIKTDCLSLPSFENAIPMGEKKDVYKAGEQVTYTCATYYKMDGASNVTCINSRWTGRPTCRDTSCVNPPTVQNAYIVSRQMSKYPSGERVRYQCRSPYEMFGDEEVMCLNGNWTEPPQCKDSTGKCGPPPPIDNGDITSFPLSVYAPASSVEYQCQNLYQLEGNKRITCRNGQWSEPPKCLHPCVISREIMENYNIALRWTAKQKLYSRTGESVEFVCKRGYRLSSRSHTLRTTCWDGKLEYPTCAKR",Kd,complement C3b [1],11.3 nM
same,koff,complement C3b [2],0.0233 s⁻¹
